T1: B7H4 on T47D cells (human, UniProt Q7Z7D3 25-282)
T1 sequence (looked up): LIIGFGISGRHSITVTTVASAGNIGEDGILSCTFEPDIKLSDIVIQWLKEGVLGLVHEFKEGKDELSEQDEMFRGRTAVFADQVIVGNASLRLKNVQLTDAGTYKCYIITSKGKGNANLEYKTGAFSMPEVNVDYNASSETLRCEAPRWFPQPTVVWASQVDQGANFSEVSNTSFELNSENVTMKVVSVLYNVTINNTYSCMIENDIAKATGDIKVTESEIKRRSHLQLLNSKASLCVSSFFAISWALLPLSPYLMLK

T2: CD73 on MCF-7 cells (human, UniProt P21589 27-549)
T2 sequence (looked up): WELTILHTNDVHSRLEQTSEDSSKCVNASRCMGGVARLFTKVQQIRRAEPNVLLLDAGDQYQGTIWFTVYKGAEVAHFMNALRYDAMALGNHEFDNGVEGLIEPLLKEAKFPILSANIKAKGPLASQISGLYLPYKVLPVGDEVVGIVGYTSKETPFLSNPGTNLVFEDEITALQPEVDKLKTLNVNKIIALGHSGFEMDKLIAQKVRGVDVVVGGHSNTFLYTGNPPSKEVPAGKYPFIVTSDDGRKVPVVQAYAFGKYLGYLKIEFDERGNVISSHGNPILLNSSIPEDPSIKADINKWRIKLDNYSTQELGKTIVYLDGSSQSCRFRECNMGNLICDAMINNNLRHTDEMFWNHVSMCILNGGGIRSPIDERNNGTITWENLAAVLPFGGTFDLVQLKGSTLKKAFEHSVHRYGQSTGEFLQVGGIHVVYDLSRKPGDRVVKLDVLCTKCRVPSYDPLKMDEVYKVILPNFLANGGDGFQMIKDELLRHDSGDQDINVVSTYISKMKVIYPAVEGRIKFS


Key:
B7H4 on T47D cells = molecular target: T1, B7H4 on T47D cells; assay: cell-based or functional assay
CD73 on MCF-7 cells = molecular target: T2, CD73 on MCF-7 cells; assay: cell-based or functional assay

Row | EC50 (ng/ml), ADCC reporter bioassay, Palbociclib Isethionate-treated T47D cells, pH 6.0 (B7H4 on T47D cells) | EC50 (ng/ml), ADCC reporter bioassay, Palbociclib Isethionate-treated T47D cells, pH 7.4 (B7H4 on T47D cells) | EC50 (ng/ml), ADCC reporter bioassay, untreated T47D cells, pH 6.0 (B7H4 on T47D cells) | EC50 (ng/ml), ADCC reporter bioassay, untreated T47D cells, pH 7.4 (B7H4 on T47D cells) | pH 7.4/pH 6.0 ratio of ADCC EC50, Palbociclib Isethionate-treated T47D cells (B7H4 on T47D cells) | pH 7.4/pH 6.0 ratio of ADCC EC50, untreated T47D cells (B7H4 on T47D cells) | EC50 (ng/mL), ADCC reporter bioassay, Palbociclib Isethionate-treated MCF-7 cells, pH6.0 (CD73 on MCF-7 cells) | EC50 (ng/mL), ADCC reporter bioassay, Palbociclib Isethionate-treated MCF-7 cells, pH7.4 (CD73 on MCF-7 cells) | EC50 (ng/mL), ADCC reporter bioassay, untreated MCF-7 cells, pH6.0 (CD73 on MCF-7 cells) | EC50 (ng/mL), ADCC reporter bioassay, untreated MCF-7 cells, pH7.4 (CD73 on MCF-7 cells) | pH7.4/pH6.0 ratio of ADCC EC50, Palbociclib Isethionate-treated MCF-7 cells (CD73 on MCF-7 cells) | pH7.4/pH6.0 ratio of ADCC EC50, untreated MCF-7 cells (CD73 on MCF-7 cells) | Binder
1 | 27 ng/ml | 149 ng/ml | 98.1 ng/ml | 429 ng/ml | 5.53 ratio | 4.37 ratio | – | – | – | – | – | – | BA-091-02-04-04 (antibody, V domains shown) VH: EVQLVQSGAEVKKPGATVKISCKVSGYTFTDRTIHWIRQSPSRGLEWLGSIYPRDGSTKYNEKFKDRVTITADKSTSTAYMELSSLRSEDTAVYYCARSVGYADDYWGQGTLVTVSS VL: DVVMTQSPLSLPVTLGQPASISCRVSEGIDNYGFTFIHWYQQKPGKAPKLLIYRASNLQSGIPARFSGSGSGTEFTLTISSLQSEDFAVYYCQQSDKDPFTFGQGTKVEIK
2 | – | – | – | – | – | – | 1.26 ng/mL | 1.16 ng/mL | 2.17 ng/mL | 1.07 ng/mL | 0.92 ratio | 0.49 ratio | BAP147-WT (antibody, V domains shown) VH: EVQLLESGGGLVQPGGSLRLSCAASGFTFSSYAYSWVRQAPGKGLEWVSAISGSGGRTYYADSVKGRFTISRDNSKNTLYLQMNSLRAEDTAVYYCARLGYGRVDEWGRGTLVTVSS VL: QSVLTQPPSASGTPGQRVTISCSGSLSNIGRNPVNWYQQLPGTAPKLLIYLDNLRLSGVPDRFSGSKSGTSASLAISGLQSEDEADYYCATWDDSHPGWTFGGGTKLTVL
3 | – | – | – | – | – | – | 55.9 ng/mL | 545 ng/mL | 173 ng/mL | 100 ng/mL | 9.74 ratio | 0.577 ratio | BAP147-HC-Y101E (antibody, V domains shown) VH: EVQLLESGGGLVQPGGSLRLSCAASGFTFSSYAYSWVRQAPGKGLEWVSAISGSGGRTYYADSVKGRFTISRDNSKNTLYLQMNSLRAEDTAVYYCARLGEGRVDEWGRGTLVTVSS VL: QSVLTQPPSASGTPGQRVTISCSGSLSNIGRNPVNWYQQLPGTAPKLLIYLDNLRLSGVPDRFSGSKSGTSASLAISGLQSEDEADYYCATWDDSHPGWTFGGGTKLTVL
4 | – | – | – | – | – | – | 28.9 ng/mL | 134 ng/mL | 44.2 ng/mL | 106 ng/mL | 4.62 ratio | 2.39 ratio | BAP147-LC-L051D (antibody, V domains shown) VH: EVQLLESGGGLVQPGGSLRLSCAASGFTFSSYAYSWVRQAPGKGLEWVSAISGSGGRTYYADSVKGRFTISRDNSKNTLYLQMNSLRAEDTAVYYCARLGYGRVDEWGRGTLVTVSS VL: QSVLTQPPSASGTPGQRVTISCSGSLSNIGRNPVNWYQQLPGTAPKLLIYDDNLRLSGVPDRFSGSKSGTSASLAISGLQSEDEADYYCATWDDSHPGWTFGGGTKLTVL
5 | 2.97 ng/ml | 10.2 ng/ml | 7.55 ng/ml | 11.7 ng/ml | 3.41 ratio | 1.54 ratio | – | – | – | – | – | – | BA-091-00-2E2 (antibody, V domains shown) VH: QVQLQQSDAELVKPGASVKISCKVSGYTFTDRTIHWMKQRPEQGLEWIGSIYPRDGSTKYNEKFKDKATLTADKSSSTAYMQLNSLTSEDSAVYFCARSVGYAFDYWGQGTTLTVSS VL: DIVLTQSPASLAVSLGQRATISCRVSEGIDNYGFTFIHWYQQKPGQPPKLLIYRASNLQSGIPARFSGSGSRTDFTLTIYPVETDDVATYYCQQSDKDPFTFGSGTKLEIK
